Data published in patent US20190008947A1.
Values joined by “and” are separate entries in the source; they are usually repeats but may differ in a detail not shown here. Identical values can stand only once. Like-named read-outs stand apart in the source and are kept apart here.

Columns and labels:
H-2Kb (mouse), P01901 = target: T1, H-2Kb (mouse), P01901; experiment: ProImmune REVEAL MHC-peptide binding assay, H-2Kb
T1 chain: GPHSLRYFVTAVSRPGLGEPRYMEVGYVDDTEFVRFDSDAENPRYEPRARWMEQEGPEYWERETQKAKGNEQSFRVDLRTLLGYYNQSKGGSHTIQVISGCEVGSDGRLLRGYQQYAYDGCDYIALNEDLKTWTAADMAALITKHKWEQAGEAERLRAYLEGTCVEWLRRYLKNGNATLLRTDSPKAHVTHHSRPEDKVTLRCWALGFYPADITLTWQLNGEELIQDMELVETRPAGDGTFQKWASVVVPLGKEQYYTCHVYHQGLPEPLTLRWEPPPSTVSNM

A*11:01, P04439 [1] = conditions: modification not given
A*11:01, P04439 [2] = conditions: modification not given; remark: listed apart in the source
A*11:01, P04439 [3] = conditions: modification not given; remark: listed apart in the source
A*03:01, P04439 [4] = target: T2, A*03:01, P04439; conditions: modification not given
T2 chain: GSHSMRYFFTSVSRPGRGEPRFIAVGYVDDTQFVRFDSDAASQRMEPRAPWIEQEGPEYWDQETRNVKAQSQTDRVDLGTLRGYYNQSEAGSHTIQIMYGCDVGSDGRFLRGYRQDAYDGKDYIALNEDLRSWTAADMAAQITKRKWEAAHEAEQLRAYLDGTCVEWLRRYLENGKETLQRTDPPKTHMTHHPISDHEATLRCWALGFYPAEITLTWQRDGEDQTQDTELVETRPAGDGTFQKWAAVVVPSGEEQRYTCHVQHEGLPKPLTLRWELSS

A*24:02, P16209 [5] = conditions: modification not given
B*07:02, P01889 = experiment: ProImmune REVEAL MHC-peptide binding assay, B*07:02
[6] = target: HLA-A*02:01 (human), P04439; experiment: ProImmune REVEAL MHC-peptide binding assay, A*02:01, score against positive control
[7] = target: T3, HLA-A*02:01 (human), P04439; conditions: chains peptide; modification not given
T3 chain: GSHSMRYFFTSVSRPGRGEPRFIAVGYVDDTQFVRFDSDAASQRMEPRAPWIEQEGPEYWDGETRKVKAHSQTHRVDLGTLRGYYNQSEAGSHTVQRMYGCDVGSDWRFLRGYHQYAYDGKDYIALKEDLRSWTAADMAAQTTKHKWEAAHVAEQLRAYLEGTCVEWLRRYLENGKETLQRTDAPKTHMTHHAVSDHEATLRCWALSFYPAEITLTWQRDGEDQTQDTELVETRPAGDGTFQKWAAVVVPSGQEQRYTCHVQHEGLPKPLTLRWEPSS

A*24:02, P16209 [8] = conditions: modification not given; remark: listed apart in the source
B*27:05, P13750 = experiment: ProImmune REVEAL MHC-peptide binding assay, B*27:05
A*11:01, P04439 [9] = conditions: modification not given; remark: listed apart in the source
A*03:01, P04439 [10] = target: T2, A*03:01, P04439; conditions: modification not given
A*11:01, P04439 [11] = conditions: modification not given; remark: listed apart in the source
A*03:01, P04439 [12] = conditions: modification not given; remark: listed apart in the source
HLA-A*32:01 [13] = experiment: HLA binding; serotype 4; conditions: chains peptide; modification not given
HLA-B*40:01 [14] = experiment: HLA binding; serotype 4; conditions: chains peptide; modification not given
A*11:01, P04439 [15] = conditions: modification not given; remark: listed apart in the source
A*24:02, P16209 [16] = conditions: modification not given; remark: listed apart in the source
A*11:01, P04439 [17] = conditions: modification not given; remark: listed apart in the source
A*03:01, P04439 [18] = conditions: modification not given; remark: listed apart in the source
HLA-B*15:01 = experiment: HLA binding; serotype 3; conditions: chains peptide; modification not given
HLA-A*32:01 [19] = experiment: HLA binding; serotype 3; conditions: chains peptide; modification not given
HLA-B*40:01 [20] = experiment: HLA binding; serotype 3; conditions: chains peptide; modification not given
A*24:02, P16209 [21] = conditions: modification not given; remark: listed apart in the source
[22] = target: HLA-A*02:01 (human), P04439
A*11:01, P04439 [23] = conditions: modification not given; remark: listed apart in the source
[24] = target: T3, HLA-A*02:01 (human), P04439; conditions: chains peptide; modification not given
HLA-A*32:01 [25] = experiment: HLA binding; serotype 1; conditions: chains peptide; modification not given
HLA-B*40:01 [26] = experiment: HLA binding; serotype 1; conditions: chains peptide; modification not given

In the case of ATFTMRLLS (modifications not checked), the REVEAL ® score at 0 h (H-2Kb (mouse), P01901) is reported as 55.6.

VTFKNAHAK was tested, and the IC50 (A*11:01, P04439 [1]) was 17 nM.

HATFTMRLL (modifications not checked) gave an REVEAL ® score at 0 h (H-2Kb (mouse), P01901) of 69.5.

In the case of VTFKVPHAK, the IC50 (A*11:01, P04439 [2]) is reported as 14 nM.

Work on ALKINWYRK yielded an IC50 (A*11:01, P04439 [3]) of 376 nM and an IC50 (A*03:01, P04439 [4]) of 193 nM.

Binder LMYFHRRDL (modifications not checked) has an REVEAL ® score at 0 h (H-2Kb (mouse), P01901) of 54.9.

Binder LAPTRVVAA (modifications not checked) has an REVEAL ® score at 0 h (H-2Kb (mouse), P01901) of 102.

Work on SYSMCTGKF yielded an IC50 (A*24:02, P16209 [5]) of 115 nM.

Binder PLSRNSTHE (modifications not checked) has an REVEAL ® score at 0 h (B*07:02, P01889) of 65.

KQWFLDLPL [… (SEQ ID NO: 341)] was tested, and the REVEAL Score [6] was 86 and the IC50 [7] was 11 nM.

For SYTMCSGKF, the IC50 (A*24:02, P16209 [8]) was 222 nM.

SRNSTHEMY (modifications not checked) showed an REVEAL ® score at 0 h (B*07:02, P01889) of 52.

Binder QQRVFKEKV (modifications not checked) has an REVEAL ® score at 0 h (H-2Kb (mouse), P01901) of 63.4.

For LSRNSTHEM (modifications not checked), the REVEAL ® score at 0 h (B*07:02, P01889) was 124 and the REVEAL ® score at 0 h (H-2Kb (mouse), P01901) was 51.1.

For FKLTYQNKV (modifications not checked), the REVEAL ® score at 0 h (B*27:05, P13750) was 53.7.

For YGLNTFTNM (modifications not checked), the REVEAL ® score at 0 h (H-2Kb (mouse), P01901) was 75.4.

In the case of QLKLNWFKK, the IC50 (A*11:01, P04439 [9]) is reported as 778 nM and the IC50 (A*03:01, P04439 [10]) is reported as 151 nM.

For ALKLSWFKK, the IC50 (A*11:01, P04439 [11]) was 59 nM and the IC50 (A*03:01, P04439 [12]) was 42 nM.

KQWFLDLPL […, serotype 4, listing 1 of 2 here] showed an IC50 (HLA-A*32:01 [13]) of 8 nM and an IC50 (HLA-B*40:01 [14]) of 398 nM.

VTFKTAHAK gave an IC50 (A*11:01, P04439 [15]) of 16 nM.

Work on ARGYISTRV (modifications not checked) yielded an REVEAL ® score at 0 h (B*27:05, P13750) of 125.

For SYAMCLNTF, the IC50 (A*24:02, P16209 [16]) was 540 nM.

CHATFTMRL (modifications not checked) showed an REVEAL ® score at 0 h (H-2Kb (mouse), P01901) of 60.3.

ALTLHWFRK was tested, and the IC50 (A*11:01, P04439 [17]) was 47 nM and the IC50 (A*03:01, P04439 [18]) was 34 nM.

In the case of RQWFFDLPL, the IC50 (HLA-B*15:01) is reported as 80 nM, the IC50 (HLA-A*32:01 [19]) is reported as 7 nM and the IC50 (HLA-B*40:01 [20]) is reported as 51 nM.

SYVMCTGSF gave an IC50 (A*24:02, P16209 [21]) of 104 nM.

With RRGDLPVWL (modifications not checked) the REVEAL ® score at 0 h (B*27:05, P13750) was 145.

Work on TALTGATEI (modifications not checked) [… (SEQ ID NO: 344)] yielded an REVEAL Score [22] of 0.9.

Binder FKPGTSGSP (modifications not checked) has an REVEAL ® score at 0 h (H-2Kb (mouse), P01901) of 45.7.

VTFKNPHAK gave an IC50 (A*11:01, P04439 [23]) of 17 nM.

In the case of RQWFFDLPL [… (SEQ ID NO: 343)], the REVEAL Score [6] is reported as 80.5 and the IC50 [24] is reported as 39 nM and 12 nM.

KQWFLDLPL […, serotype 1, listing 2 of 2 here] showed an IC50 (HLA-A*32:01 [25]) of 8 nM and an IC50 (HLA-B*40:01 [26]) of 398 nM.

Work on LMCHATFTM (modifications not checked) yielded an REVEAL ® score at 0 h (B*27:05, P13750) of 98.2 and an REVEAL ® score at 0 h (H-2Kb (mouse), P01901) of 59.
